Test results from patent US20180172684A1.

Experiments:
[1] = molecular target: P30 protein of Mycoplasma pneumoniae as present in Mycoplasma pneumoniae analytes (deactivated Mycoplasma pneumoniae Antigen (FH), Meridian; pharyngeal swabs of infected subjects) (Mycoplasma pneumoniae) (UniProt P75330); assay: immunochromatography sandwich (Com. Ex. 2), label P30(b), detection P30(b); pharyngeal swab Subject 2
[2] = molecular target: P30 protein of Mycoplasma pneumoniae as present in Mycoplasma pneumoniae analytes (deactivated Mycoplasma pneumoniae Antigen (FH), Meridian; pharyngeal swabs of infected subjects) (Mycoplasma pneumoniae) (UniProt P75330); assay: immunochromatography sandwich (Com. Ex. 1), label P30(a), detection P30(b); pharyngeal swab Subject 2
[3] = molecular target: mycoplasma pneumonia P30 (purified protein P30Ag produced by expressing amino acids 96-274 with Escherichia coli) (Mycoplasma pneumoniae) (UniProt P75330); assay: ELISA, P30Ag coated at 4 ng/mL, antibody 5 ug/mL, anti-mouse IgG-peroxidase
[4] = molecular target: full-length protein mycoplasma pneumonia P30 (amino acids 1-274; SEQ ID NO: 1) (Mycoplasma pneumoniae) (UniProt P75330); assay: ELISA, full-length P30 coated, 5 ug/mL P30(b), no peptide (0 point of the peptide 2 series)
[5] = molecular target: P30 protein of Mycoplasma pneumoniae as present in Mycoplasma pneumoniae analytes (deactivated Mycoplasma pneumoniae Antigen (FH), Meridian; pharyngeal swabs of infected subjects) (Mycoplasma pneumoniae) (UniProt P75330); assay: immunochromatography sandwich (Com. Ex. 7), label P30(b), detection P30(b); pharyngeal swab Subject 2
[6] = molecular target: mycoplasma pneumonia P30 (purified protein P30Ag produced by expressing amino acids 96-274 with Escherichia coli) (Mycoplasma pneumoniae) (UniProt P75330); assay: immunochromatography sandwich (Com. Ex. 8), label P30(a), detection P30(b); analyte P30Ag
[7] = molecular target: mycoplasma pneumonia P30 (purified protein P30Ag produced by expressing amino acids 96-274 with Escherichia coli) (Mycoplasma pneumoniae) (UniProt P75330); assay: immunochromatography sandwich (Com. Ex. 9), label P30(b), detection P30(b); analyte P30Ag
[8] = molecular target: P30 protein of Mycoplasma pneumoniae as present in Mycoplasma pneumoniae analytes (deactivated Mycoplasma pneumoniae Antigen (FH), Meridian; pharyngeal swabs of infected subjects) (Mycoplasma pneumoniae) (UniProt P75330); assay: immunochromatography sandwich (Com. Ex. 1), label P30(a), detection P30(b); pharyngeal swab Subject 1
[9] = molecular target: P30 protein of Mycoplasma pneumoniae as present in Mycoplasma pneumoniae analytes (deactivated Mycoplasma pneumoniae Antigen (FH), Meridian; pharyngeal swabs of infected subjects) (Mycoplasma pneumoniae) (UniProt P75330); assay: immunochromatography sandwich (Com. Ex. 2), label P30(b), detection P30(b); deactivated Mycoplasma pneumoniae (FH)
[10] = molecular target: P30 protein of Mycoplasma pneumoniae as present in Mycoplasma pneumoniae analytes (deactivated Mycoplasma pneumoniae Antigen (FH), Meridian; pharyngeal swabs of infected subjects) (Mycoplasma pneumoniae) (UniProt P75330); assay: immunochromatography sandwich (Com. Ex. 6), label P30(a), detection P30(b); deactivated Mycoplasma pneumoniae (FH); Triton X-100/Tween 20 diluent
[11] = molecular target: P30 protein of Mycoplasma pneumoniae as present in Mycoplasma pneumoniae analytes (deactivated Mycoplasma pneumoniae Antigen (FH), Meridian; pharyngeal swabs of infected subjects) (Mycoplasma pneumoniae) (UniProt P75330); assay: immunochromatography sandwich (Com. Ex. 6), label P30(a), detection P30(b); pharyngeal swab Subject 2; Triton X-100/Tween 20 diluent
[12] = molecular target: full-length protein mycoplasma pneumonia P30 (amino acids 1-274; SEQ ID NO: 1) (Mycoplasma pneumoniae) (UniProt P75330); assay: ELISA, full-length P30 coated, 5 ug/mL P30(b), no peptide (0 point of the peptide 1 series)
[13] = molecular target: P30 protein of Mycoplasma pneumoniae as present in Mycoplasma pneumoniae analytes (deactivated Mycoplasma pneumoniae Antigen (FH), Meridian; pharyngeal swabs of infected subjects) (Mycoplasma pneumoniae) (UniProt P75330); assay: immunochromatography sandwich (Com. Ex. 1), label P30(a), detection P30(b); deactivated Mycoplasma pneumoniae (FH)
[14] = molecular target: P30 protein of Mycoplasma pneumoniae as present in Mycoplasma pneumoniae analytes (deactivated Mycoplasma pneumoniae Antigen (FH), Meridian; pharyngeal swabs of infected subjects) (Mycoplasma pneumoniae) (UniProt P75330); assay: immunochromatography sandwich (Com. Ex. 7), label P30(b), detection P30(b); deactivated Mycoplasma pneumoniae (FH)
[15] = molecular target: mycoplasma pneumonia P30 (purified protein P30Ag produced by expressing amino acids 96-274 with Escherichia coli) (Mycoplasma pneumoniae) (UniProt P75330); assay: immunochromatography sandwich, P30(b)-gold label and P30(b) detection line, P30Ag 10 pg/mL, no peptide
[16] = molecular target: P30 protein of Mycoplasma pneumoniae as present in Mycoplasma pneumoniae analytes (deactivated Mycoplasma pneumoniae Antigen (FH), Meridian; pharyngeal swabs of infected subjects) (Mycoplasma pneumoniae) (UniProt P75330); assay: immunochromatography sandwich (Com. Ex. 2), label P30(b), detection P30(b); pharyngeal swab Subject 1
[17] = molecular target: P30 protein of Mycoplasma pneumoniae as present in Mycoplasma pneumoniae analytes (deactivated Mycoplasma pneumoniae Antigen (FH), Meridian; pharyngeal swabs of infected subjects) (Mycoplasma pneumoniae) (UniProt P75330); assay: immunochromatography sandwich (Com. Ex. 7), label P30(b), detection P30(b); pharyngeal swab Subject 1
[18] = molecular target: P30 protein of Mycoplasma pneumoniae as present in Mycoplasma pneumoniae analytes (deactivated Mycoplasma pneumoniae Antigen (FH), Meridian; pharyngeal swabs of infected subjects) (Mycoplasma pneumoniae) (UniProt P75330); assay: immunochromatography sandwich (Com. Ex. 6), label P30(a), detection P30(b); pharyngeal swab Subject 1; Triton X-100/Tween 20 diluent
[19] = molecular target: antibody P30(b) (Fucal Research product Mp-P30-9-AB); assay: competitive inhibition ELISA, full-length P30 coated, 5 ug/mL P30(b) + peptide 1 at x40 the antibody concentration
[20] = molecular target: antibody P30(a) (Fucal Research product Mp-P30-3-AB); assay: competitive inhibition ELISA, full-length P30 coated at 4 ng/mL, 5 ug/mL P30(a) + peptide 1 at 40 times the antibody amount
[21] = molecular target: antibody P30(b) (Fucal Research product Mp-P30-9-AB); assay: competitive inhibition ELISA, full-length P30 coated, 5 ug/mL P30(b) + peptide 1 at x10 the antibody concentration
[22] = molecular target: antibody P30(b) (Fucal Research product Mp-P30-9-AB); assay: competitive inhibition ELISA, full-length P30 coated, 5 ug/mL P30(b) + peptide 1 at x320 the antibody concentration
[23] = molecular target: antibody P30(b) (Fucal Research product Mp-P30-9-AB); assay: competitive inhibition ELISA, full-length P30 coated, 5 ug/mL P30(b) + peptide 1 at x1 the antibody concentration
[24] = molecular target: antibody P30(a) (Fucal Research product Mp-P30-3-AB); assay: competitive inhibition ELISA, full-length P30 coated, 5 ug/mL P30(a) + peptide 1 at x160 the antibody concentration
[25] = molecular target: antibody P30(a) (Fucal Research product Mp-P30-3-AB); assay: competitive inhibition ELISA, full-length P30 coated, 5 ug/mL P30(a) + peptide 1 at x1 the antibody concentration
[26] = molecular target: antibody P30(b) (Fucal Research product Mp-P30-9-AB); assay: competitive inhibition ELISA, full-length P30 coated, 5 ug/mL P30(b) + peptide 1 at x160 the antibody concentration
[27] = molecular target: antibody P30(a) (Fucal Research product Mp-P30-3-AB); assay: immunochromatography competition, 400 ng peptide 1 developed with P30Ag 10 pg/mL, P30(a) label and detection
[28] = molecular target: antibody P30(a) (Fucal Research product Mp-P30-3-AB); assay: competitive inhibition ELISA, full-length P30 coated, 5 ug/mL P30(a) + peptide 1 at x10 the antibody concentration
[29] = molecular target: antibody P30(b) (Fucal Research product Mp-P30-9-AB); assay: competitive inhibition ELISA, full-length P30 coated, 5 ug/mL P30(b) + peptide 1 at x640 the antibody concentration
[30] = molecular target: antibody P30(b) (Fucal Research product Mp-P30-9-AB); assay: competitive inhibition ELISA, full-length P30 coated, 5 ug/mL P30(b) + peptide 1 at x80 the antibody concentration
[31] = molecular target: antibody P30(a) (Fucal Research product Mp-P30-3-AB); assay: competitive inhibition ELISA, full-length P30 coated, 5 ug/mL P30(a) + peptide 1 at x80 the antibody concentration
[32] = molecular target: antibody P30(a) (Fucal Research product Mp-P30-3-AB); assay: competitive inhibition ELISA, full-length P30 coated, 5 ug/mL P30(a) + peptide 1 at x640 the antibody concentration
[33] = molecular target: antibody P30(b) (Fucal Research product Mp-P30-9-AB); assay: competitive inhibition ELISA, full-length P30 coated, 5 ug/mL P30(b) + peptide 1 at x20 the antibody concentration
[34] = molecular target: antibody P30(a) (Fucal Research product Mp-P30-3-AB); assay: competitive inhibition ELISA, full-length P30 coated, 5 ug/mL P30(a) + peptide 1 at x20 the antibody concentration
[35] = molecular target: antibody P30(a) (Fucal Research product Mp-P30-3-AB); assay: competitive inhibition ELISA, full-length P30 coated, 5 ug/mL P30(a) + peptide 1 at x320 the antibody concentration
[36] = molecular target: antibody P30(b) (Fucal Research product Mp-P30-9-AB); assay: immunochromatography competition, 400 ng peptide 1 developed with P30Ag 10 pg/mL, P30(b) label and detection
[37] = molecular target: antibody P30(a) (Fucal Research product Mp-P30-3-AB); assay: competitive inhibition ELISA, full-length P30 coated, 5 ug/mL P30(a) + peptide 1 at x40 the antibody concentration

Molecule: antibody P30(b) (Fucal Research product Mp-P30-9-AB)
- Color intensity (mAbs) [1]: 6.1 mAbs
- Color intensity (mAbs) [2]: 7.9 mAbs
- absorbance at 450 nm after subtracting the blank [3]: 0.061 Abs
- Color intensity (Abs) [4]: 0.208 Abs
- Color intensity (mAbs) [5]: 8.9 mAbs
- Color intensity (mAbs) [6]: 31.8 mAbs
- Color intensity (mAbs) [7]: 24.3 mAbs
- Color intensity (mAbs) [8]: 16.3 mAbs
- Color intensity (mAbs) [9]: 18.9 mAbs
- Color intensity (mAbs) [10]: 159 mAbs
- Color intensity (mAbs) [11]: 13.6 mAbs
- Color intensity (Abs) [12]: 0.208 Abs
- Color intensity (mAbs) [13]: 79.4 mAbs
- Color intensity (mAbs) [14]: 40.5 mAbs
- Color intensity after 15 min [15]: 58.2 mAbs
- Color intensity (mAbs) [16]: 8.9 mAbs
- Color intensity (mAbs) [17]: 15.2 mAbs
- Color intensity (mAbs) [18]: 29.8 mAbs

Molecule: PGMAPRPGMPPHPGMAPR [Peptide 1 (SEQ ID NO: 6: …)]
- Color intensity (Abs) [19]: 0.232 Abs
- percentage reduction of absorbance [20]: > 30%
- Color intensity (Abs) [21]: 0.256 Abs
- Color intensity (Abs) [22]: 0.23 Abs
- Color intensity (Abs) [23]: 0.226 Abs
- Color intensity (Abs) [24]: 0.134 Abs
- Percentage reduction of color intensity (%) [24]: 67%
- Color intensity (Abs) [25]: 0.37 Abs
- Percentage reduction of color intensity (%) [25]: 10%
- Color intensity (Abs) [26]: 0.223 Abs
- Color intensity after 15 min [27]: 100 mAbs
- Color intensity (Abs) [28]: 0.341 Abs
- Percentage reduction of color intensity (%) [28]: 17%
- Color intensity (Abs) [29]: 0.225 Abs
- Color intensity (Abs) [30]: 0.237 Abs
- Color intensity (Abs) [31]: 0.17 Abs
- Percentage reduction of color intensity (%) [31]: 59%
- Color intensity (Abs) [32]: 0.12 Abs
- Percentage reduction of color intensity (%) [32]: 71%
- Color intensity (Abs) [33]: 0.228 Abs
- Color intensity (Abs) [34]: 0.322 Abs
- Percentage reduction of color intensity (%) [34]: 22%
- Color intensity (Abs) [35]: 0.132 Abs
- Percentage reduction of color intensity (%) [35]: 68%
- Color intensity after 15 min [36]: 60.9 mAbs
- Color intensity (Abs) [37]: 0.24 Abs
- Percentage reduction of color intensity (%) [37]: 42%
